Consider five molecules from US20220363752A1 (VERSEAU THERAPEUTICS, published 2022).

Changes are numbered by the printed parent chain. Primed or numbered codes have the meaning given here. Biotin′ = not defined here

Test [1] addresses T1, LRRC25(21-40) biotin peptide (human, not fully specified; N-terminal NH2; C-terminal GGK-Biotin; native Cys changed to Ser).
T1 peptide: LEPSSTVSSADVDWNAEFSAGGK
The test can be described thus: peptide ELISA. As to the method: (§1) To establish if functional chimera anti-LRRC25 antibodies recognize particular regions of LRRC25, ELISA experiments were performed using 10 plate-immobilized 16- to 20-mer overlapping LRRC25(ECD) biotin peptides (Table 7). Biotinylated human LRRC25-His served as a positive control. A typical ELISA was performed by coating overnight at 4° C., 3 ug/mL/25 ul per well of streptavidin (Jackson Immunoresearch, Cat. #016-030-084) in PBS in half-area high binding microtiter wells (Corning Cat. #3690). […] Biotin peptides or biotinylated human LRRC25-His protein were added in duplicate (2 ug/mL/25 ul per well) in assay buffer (blocking buffer containing 0.05% tween 20) and the plate incubated for 45 min at 37° C. The plate was washed as before, 20 nM anti-LRRC25 antibodies in assay buffer added in duplicate into appropriate wells, and the plate incubated as before. The plate was washed and HRP-conjugated secondary antibody in assay buffer added [25 ul per well; goat anti-human IgG (Jackson Immunoresearch, Cat. #715-035-150)], and incubated as before. Antibody bound to plate-immobilized peptide(s) or protein was determined at A450 nm using HRP substrate (3,3′,5,5′-tetramethylbenzidine (TMB); eBioscience; Cat. #00-4201-56); 100 μl/well).
A general note: In an ELISA, binding on a coated surface is turned into a signal by an enzyme label.

In test [2] the target is T2, LRRC25(36-55) biotin peptide (human, not fully specified; N-terminal NH2; C-terminal GGK-Biotin; native Cys changed to Ser).
T2 peptide: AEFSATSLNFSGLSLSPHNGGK
In words: peptide ELISA. As to the method:
as §1

In test [3] the target is T3, LRRC25(51-69) biotin peptide (human, not fully specified; N-terminal acetyl; C-terminal GGK-Biotin).
T3 peptide: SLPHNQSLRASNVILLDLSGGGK
The test can be described thus: peptide ELISA. Here is the method: as §1

Test [4] has as its target T4, LRRC25(66-85) biotin peptide (human, not fully specified; N-terminal acetyl; C-terminal GGK-Biotin).
T4 peptide: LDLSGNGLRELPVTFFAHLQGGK
The test can be described thus: peptide ELISA. As to the method:
as §1

Test [5] has as its target T5, LRRC25(81-100) biotin peptide (human, not fully specified; N-terminal acetyl; C-terminal GGK-Biotin).
T5 peptide: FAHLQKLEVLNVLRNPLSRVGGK
The test can be described thus: peptide ELISA. Here is the method:
as §1

For test [6], the target named is T6, LRRC25(111-130) biotin peptide (human, not fully specified; N-terminal acetyl; C-terminal GGK-Biotin; native Cys changed to Ser).
T6 peptide: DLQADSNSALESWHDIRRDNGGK
The test can be described thus: peptide ELISA. Here is the method:
as §1

The target of test [7] is T7, LRRC25(126-145) biotin peptide (human, not fully specified; N-terminal acetyl; C-terminal GGK-Biotin; native Cys changed to Ser).
T7 peptide: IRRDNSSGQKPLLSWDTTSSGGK
The test can be described thus: peptide ELISA. As to the method: as §1

Test [8] has as its target T8, LRRC25(141-159) biotin peptide (human, not fully specified; N-terminal acetyl; C-terminal GGK-Biotin; native Cys changed to Ser).
T8 peptide: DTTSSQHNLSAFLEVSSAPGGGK
The test can be described thus: peptide ELISA. As to the method:
as §1

In test [9] the target is T9, LRRC25(150-165) biotin peptide (human).
T9 peptide: Ac-SAFLEVSSAPGLASATGG-{Biotin′}
The test can be described thus: peptide ELISA. Here is the method:
as §1

In test [10] the target is T10, His-tagged human LRRC25 extracellular domain protein, human LRRC25-His (human, UniProt Q8N386 21-165).
T10 construct: The entry holds the extracellular domain, a GSG linker and the His tag; also called LRRC25(ECD)-HIS
The test can be described thus: ELISA, plate-immobilized antigen. As to the method:
(§2) To establish the relative binding strengths of anti-LRRC25 antibodies against human LRRC25, and their cross-reactivity with cynomolgus monkey LRRC25, antibody binding curve analyses were performed and EC50 values against plate-immobilized recombinant human and cyno LRRC25 proteins were determined.
(§3) A typical ELISA was performed by coating overnight in PBS, pH 7.4, at 4° C. in high binding microtiter wells with 1 ug/mL/100 ul per well of human LRRC25-His or cyno LRRC25-His. An anti-human LRRC25 antibody (2A3, LS Bio, LS-C174039-100) and anti-HIS-HRP (Miltenyi Biotec; 130-092-783) served as coating controls for the human and cyno LRRC25 proteins, respectively. […] Anti-LRRC25 antibodies were added (100 ul per well) at 500 nM and serially diluted 3-fold in assay buffer (1% skimmed milk in PBS, pH 7.4). The plate was incubated with gentle agitation for 1 h at room temperature. The plate was washed 3× and HRP-conjugated secondary antibody in assay buffer added [100 ul per well; goat anti-human IgG (Jackson Immunoresearch, cat #715-035-150)], and the plate was incubated as before. Antibody bound to plate-immobilized LRRC25(ECD)-HIS was determined at A450 nm using HRP substrate (3,3′,5,5′-tetramethylbenzidine (TMB); eBioscience; 00-4201-56); 100 μl/well).

Test [11] concerns the target T11, His-tagged cynomolgus monkey LRRC25 extracellular domain protein, cyno LRRC25-His (cynomolgus monkey).
T11 construct: The entry holds the extracellular domain, a GSG linker and the His tag
In words: ELISA, plate-immobilized antigen. Here is the method:
as §2, §3

The target of test [12] is T12, biotinylated human LRRC25-His protein (human, UniProt Q8N386 21-165, biotinylated (sites not given)).
T12 construct: also called Biotin LRRC25-His; biotinylated LRRC25 protein
In words: ELISA, 20 nM antibody, biotinylated antigen on streptavidin plate. As to the method: as §1

Test [13] has as its target T13, LRRC25(96-115) biotin peptide (human, not fully specified; N-terminal acetyl; C-terminal GGK-Biotin; native Cys changed to Ser).
T13 construct: also called Biotin LRRC25 (96-115) peptide
T13 peptide: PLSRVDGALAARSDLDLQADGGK
The test is described as above. As to the method:
as §1

In test [14] the target is T13, LRRC25(96-115) biotin peptide. The test can be described thus: peptide ELISA. Here is the method:
as §1

For test [15], the target named is T11, His-tagged cynomolgus monkey LRRC25 …. The test can be described thus: ELISA, plate-immobilized cyno LRRC25-His. As to the method:
as §3

T10 sequence (Q8N386 other isoform, or with tags, fused parts or gaps): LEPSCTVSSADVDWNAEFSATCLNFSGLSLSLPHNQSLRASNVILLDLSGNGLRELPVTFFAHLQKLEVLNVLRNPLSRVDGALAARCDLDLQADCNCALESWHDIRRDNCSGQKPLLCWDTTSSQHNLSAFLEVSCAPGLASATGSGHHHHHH
T12 sequence (Q8N386 other isoform, or with tags, fused parts or gaps): as above
T11 sequence (chain, as listed by the source limits assumed): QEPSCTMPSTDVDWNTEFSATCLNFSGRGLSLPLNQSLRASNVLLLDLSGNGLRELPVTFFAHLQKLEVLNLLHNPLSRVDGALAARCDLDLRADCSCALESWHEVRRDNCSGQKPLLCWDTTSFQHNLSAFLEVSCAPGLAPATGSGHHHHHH

B1: anti-LRRC25 chimeric antibody 1E11 (antibody, human IgG4, V domains shown)
VH: EVQLLETGGGLVKPGGSLKLSCAASGFTFSSSAMSWVRQTPEKRLEWVTSISRGGNTYYPDSVKGRFTISRDNARNILYLQMSSLRSEDTAMYYCARGQELRLFAYWGQGTLVTVSA
VL: DIVMTQDAFSNPVTLGTSASISCRSSKSLLHSNGITYLYWYLQKPGQSPQLLIYQMSNLASGVPDRFSSSGSGTDFTLRISRVEAEDVGVYYCAQNLELPFTFGSGTKLEIKR
Consider B1, for which the binding result in [1], in test [2], in test [3], in test [4], in [5] and in test [6] was “no binding (tested: 20 nM)” in each case. The binding result in [7], in test [8] and in [9] was “no binding (tested: 20 nM)” in each case. For the same molecule, the 50% effective concentration (EC50) (in general, the concentration needed to bring the measured effect to its halfway point) in test [10] is 0.00058 µM; in test [11] it was about 0.5 µM. In addition, the “absorbance (A450)” value in test [12] was 1.89 A450; in test [13], 2.65 A450.

B2: anti-LRRC25 chimeric antibody 3E08 (antibody, human IgG4, V domains shown)
VH: EVKLLESGGGLVKPGGSLKLSCAASGFTLSSYAMSWVRQTPEKRLEWVASISRSNTTYYPDSVKGRFTISRDNAKNILYLQMSSLRSEDTAMYYCARGVLLRPFASWGQGTLVTVSA
VL: B1 VL with F101L, S105A, I111L
With B2, the binding result in [1], in test [2], in test [3], in [4], in [5] and in test [14] was “no binding (tested: 20 nM)” throughout. Moreover, the binding result was “no binding (tested: 20 nM)” in test [6]; “no binding (tested: 20 nM)” in test [7]; “no binding (tested: 20 nM)” in test [8]; “no binding (tested: 20 nM)” in test [9]; “no binding (tested: 500 nM)” in [15]. For the same molecule, the EC50 in test [10] was about 1 µM. The “absorbance (A450)” value in [12] turned out to be 0.152 A450; in [13], 0.052 A450.

B3: anti-LRRC25 chimeric antibody 3C01 (antibody, human IgG4, V domains shown)
VH: EEKLEESGGGLVKPGGSLKLSCAVSGFTLSSYAMSWVRQTPEKRLEWVASISRGGNTYYPDSVKGRFTISRDNGRNILNLQMSSLRSEDTAIYYCTRGGGSTMITSLFAYWGQGTLVTVSA
VL: DIVMTQDAPSVPVTPGESVSISCRSSKSLLHSNGNTYLYWFLQRPGQSPQLLIYRMSNLASGVPDRFSGSGSGTAFTLRISRVEAEDVGVYYCMQHLEYPFTFGSGTKLEIKR
notes: also called ATCC PTA-126026
For the molecule B3, the binding result in test [1], in test [2], in [3], in [4], in test [5] and in test [14] was “no binding (tested: 20 nM)” in each case. In addition, the binding result in test [6] is reported as “no binding (tested: 20 nM)”; in test [7], “no binding (tested: 20 nM)”; in test [8], “no binding (tested: 20 nM)”; in [9] it was “no binding (tested: 20 nM)”; in [15], “no binding (tested: 500 nM)”. Besides, a half-maximal response in test [10] (EC50) required 0.0303 µM. Besides, the “absorbance (A450)” value turned out to be 0.354 A450 in test [12] and 0.079 A450 in test [13].

B4: anti-LRRC25 chimeric antibody 1A01 (antibody, human IgG4, V domains shown)
VH: EVKLLESGGGLVKPGGSLKLSCAASGFTFSSYAMSWVRQTPEKRLEWVASISRGGNTYYPDSVKGRFTISRDNARNILYLQMSSLRSEDTAMYYCARGNYGNSPFAYWGQGTLVTVSA
VL: DIVMTQSPASLAVSLGQRATISCRASKSVSTSGYSYMHWYQQKPGQPPKLLIYLASNLESGVPARFSGSGSGTDFTLNIHPVEEEDAATYYCQHSRELPFTFGSGTKLEIKR
notes: also called mAb 1A01
Consider B4, for which the binding result in test [1], in [2], in test [3], in test [4], in test [5] and in [6] was “no binding (tested: 20 nM)” in each case. Further, the binding result in test [7], in test [8] and in test [9] was “no binding (tested: 20 nM)” throughout. Further, the results for the EC50 in test [10] and in test [11] were 0.0041 µM and over 0.5 µM, respectively. Besides, the “absorbance (A450)” value in [12] amounted to 0.456 A450; in test [13], 2.33 A450.

B5: anti-LRRC25 chimeric antibody 4A03 (antibody, human IgG4, V domains shown)
VH: B4 VH with E1D, K3N, L5E, E6V, S31R, N56S, N73I, N76D, N102S, P104L
VL: B1 VL with D7A
Turning to B5, the binding result in [1], in [2], in [3], in [4], in test [5] and in test [14] was “no binding (tested: 20 nM)” in each case. Further, the binding result in test [6] is “no binding (tested: 20 nM)”; in test [7], “no binding (tested: 20 nM)”; in test [8], “no binding (tested: 20 nM)”; in test [9], “no binding (tested: 20 nM)”; in test [15] it was “no binding (tested: 500 nM)”. The EC50 in test [10] was about 0.1 µM. In addition, the “absorbance (A450)” value in test [12] stood at 0.251 A450; in test [13], 0.11 A450.
